Data taken from US20180340025A1 (Novartis, published 2018).
Where a chain is given by its changes, count along the chain named. Numbers in names are those of the source.

T1: human LAG-3 expressed on cells (human, UniProt P18627 23-525)
T1 construct: whole, on cells; Treated as one protein; the host cell is named under assay; also called LAG-3-expressing CHO cells; LAG-3-transfected CHO cells
T1 sequence (looked up): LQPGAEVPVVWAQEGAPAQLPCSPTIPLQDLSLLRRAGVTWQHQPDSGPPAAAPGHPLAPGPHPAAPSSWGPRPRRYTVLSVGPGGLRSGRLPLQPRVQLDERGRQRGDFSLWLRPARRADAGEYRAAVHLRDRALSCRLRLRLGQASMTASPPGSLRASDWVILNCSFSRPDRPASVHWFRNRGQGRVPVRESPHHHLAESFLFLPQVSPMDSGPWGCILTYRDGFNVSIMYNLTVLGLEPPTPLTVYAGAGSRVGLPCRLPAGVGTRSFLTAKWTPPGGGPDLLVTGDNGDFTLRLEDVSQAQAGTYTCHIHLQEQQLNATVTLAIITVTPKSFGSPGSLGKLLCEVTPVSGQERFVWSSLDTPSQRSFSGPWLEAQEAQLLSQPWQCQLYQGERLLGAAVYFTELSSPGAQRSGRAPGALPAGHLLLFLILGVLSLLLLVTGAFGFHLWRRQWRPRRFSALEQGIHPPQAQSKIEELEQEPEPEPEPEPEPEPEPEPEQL

B1: BAP050-hum20 (antibody, human IgG4 S228P, kappa, V domains shown)
VH: QVQLVQSGAEVKKPGASVKVSCKASGFTLTNYGMNWVRQARGQRLEWIGWINTDTGEPTYADDFKGRFVFSLDTSVSTAYLQICSLKAEDTAVYYCARNPPYYYGTNNAEAMDYWGQGTTVTVSS
VL: DIVMTQTPLSLPVTPGEPASISCSSSQDISNYLNWYQQKPGQAPRLLIYYTSTLHLGIPDRFSGSGSGTDFTLTISRLEPEDFAVYYCQQYYNLPWTFGQGTKVEIKR
notes: humanized IgG4(S228P)/kappa, transient CHO supernatant
B2: BAP050-hum09 (antibody, human IgG4 S228P, kappa, V domains shown)
VH: B1 VH
VL: DIQMTQSPSSLSASVGDRVTITCSSSQDISNYLNWYQQKPGKAPKLLIYYTSTLHLGIPPRFSGSGYGTDFTLTINNIESEDAAYYFCQQYYNLPWTFGQGTKVEIKR
notes: humanized IgG4(S228P)/kappa, transient CHO supernatant; also called humanized clone No. 09
B3: BAP050-hum10 (antibody, human IgG4 S228P, kappa, V domains shown)
VH: B1 VH
VL: EIVLTQSPATLPVTLGQPASISCSSSQDISNYLNWYQQKPGQAPRLLIYYTSTLHLGVPSRFSGSGSGTDFTFTISSLEAEDAATYYCQQYYNLPWTFGQGTKVEIKR
notes: as for B1
B4: BAP050-hum13 (antibody, human IgG4 S228P, kappa, V domains shown)
VH: B1 VH with R41P, R44G, I48M
VL: B2 VL
notes: humanized IgG4(S228P)/kappa, transient CHO supernatant; also called humanized clone No. 13
B5: BAP050-hum17 (antibody, human IgG4 S228P, kappa, V domains shown)
VH: B1 VH with A9S, V11L, R41P, R44G, I48M, C84S, S85T, V93T, Y95F
VL: DIQMTQSPSSLSASVGDRVTITCSSSQDISNYLNWYQQKPGKAPKLLIYYTSTLHLGVPSRFSGSGSGTDFTFTISSLQPEDIATYYCQQYYNLPWTFGQGTKVEIKR
notes: as for B1
B6: BAP050-hum12 (antibody, human IgG4 S228P, kappa, V domains shown)
VH: B1 VH
VL: EIVLTQSPDFQSVTPKEKVTITCSSSQDISNYLNWYQQKPGQAPRLLIYYTSTLHLGVPSRFSGSGSGTDFTLTISSLQPEDFATYYCQQYYNLPWTFGQGTKVEIKR
notes: humanized IgG4(S228P)/kappa, transient CHO supernatant; also called humanized clone No. 12
B7: BAP050-hum06 (antibody, human IgG4 S228P, kappa, V domains shown)
VH: B1 VH with Q1E, S17T, V20I, A24V, R41P, R44G, I48M
VL: B1 VL with I58V, D60S, D70E, R77S, E79Q, E81D, V85T
notes: as for B1
B8: BAP050-hum11 (antibody, human IgG4 S228P, kappa, V domains shown)
VH: B1 VH
VL: B5 VL with Q37L, K42Q, A43S, K45Q, D70E, F73L, E81D, I83F
notes: humanized IgG4(S228P)/kappa, transient CHO supernatant; also called humanized clone No. 11
B9: BAP050-hum05 (antibody, human IgG4 S228P, kappa)
heavy: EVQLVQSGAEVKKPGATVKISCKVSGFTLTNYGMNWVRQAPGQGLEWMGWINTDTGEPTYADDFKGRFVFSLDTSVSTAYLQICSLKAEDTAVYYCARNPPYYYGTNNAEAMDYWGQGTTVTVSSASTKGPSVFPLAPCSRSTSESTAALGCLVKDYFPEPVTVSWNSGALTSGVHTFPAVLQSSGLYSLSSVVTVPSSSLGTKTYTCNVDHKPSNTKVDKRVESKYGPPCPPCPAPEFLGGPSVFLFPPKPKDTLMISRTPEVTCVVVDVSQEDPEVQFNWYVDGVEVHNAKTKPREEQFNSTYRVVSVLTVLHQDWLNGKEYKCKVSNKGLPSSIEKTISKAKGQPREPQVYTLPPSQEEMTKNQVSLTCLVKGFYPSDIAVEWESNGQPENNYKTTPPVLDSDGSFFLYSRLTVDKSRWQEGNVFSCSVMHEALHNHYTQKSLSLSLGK
light: EIVLTQSPATLSLSPGERATLSCSSSQDISNYLNWYQQKPGKAPKLLIYYTSTLHLGVPSRFSGSGSGTDFTFTISSLEAEDAATYYCQQYYNLPWTFGQGTKVEIKRTVAAPSVFIFPPSDEQLKSGTASVVCLLNNFYPREAKVQWKVDNALQSGNSQESVTEQDSKDSTYSLSSTLTLSKADYEKHKVYACEVTHQGLSSPVTKSFNRGEC
notes: humanized IgG4(S228P)/kappa, transient CHO supernatant; also called humanized clone No. 05
B10: BAP050-hum04 (antibody, human IgG4 S228P, kappa, V domains shown)
VH: B1 VH with Q1E, S17T, V20I, A24V, R41P, R44G, I48M
VL: DIQMTQSPSSLSASVGDRVTITCSSSQDISNYLNWYLQKPGQSPQLLIYYTSTLHLGIPDRFSGSGSGTDFTLTISRLEPEDFAVYYCQQYYNLPWTFGQGTKVEIKR
notes: as for B1
B11: BAP050-hum02 (antibody, human IgG4 S228P, kappa, V domains shown)
VH: B1 VH with Q1E, S17T, V20I, A24V, R41P, R44G, I48M
VL: B2 VL
notes: humanized IgG4(S228P)/kappa, transient CHO supernatant; also called humanized clone No. 02
B12: BAP050-hum07 (antibody, human IgG4 S228P, kappa, V domains shown)
VH: B1 VH with Q1E, S17T, V20I, A24V, R41P, R44G, I48M
VL: B10 VL with I58V, D60S, D70E, R77S, E79Q, E81D, V85T
notes: as for B1
B13: BAP050-hum03 (antibody, human IgG4 S228P, kappa)
heavy: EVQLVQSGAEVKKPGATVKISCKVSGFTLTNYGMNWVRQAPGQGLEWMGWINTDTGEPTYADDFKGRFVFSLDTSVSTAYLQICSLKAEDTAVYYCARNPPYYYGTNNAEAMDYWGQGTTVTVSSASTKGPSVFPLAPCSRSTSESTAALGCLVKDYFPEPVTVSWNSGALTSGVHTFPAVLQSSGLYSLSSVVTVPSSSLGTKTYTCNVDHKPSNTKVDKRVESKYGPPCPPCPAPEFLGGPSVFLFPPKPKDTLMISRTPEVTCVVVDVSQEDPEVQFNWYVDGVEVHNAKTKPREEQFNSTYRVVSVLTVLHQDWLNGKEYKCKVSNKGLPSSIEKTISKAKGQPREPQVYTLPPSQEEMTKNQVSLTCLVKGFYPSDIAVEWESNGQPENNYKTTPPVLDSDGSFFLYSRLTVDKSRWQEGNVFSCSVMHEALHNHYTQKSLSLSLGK
light: B9 light with S12P, L13V, S14T, P15L, E17Q, R18P, T20S, L21I, K42Q, K45R
notes: as for B1
B14: BAP050-hum16 (antibody, human IgG4 S228P, kappa, V domains shown)
VH: EVQLVQSGAEVKKPGESLRISCKGSGFTLTNYGMNWVRQATGQGLEWMGWINTDTGEPTYADDFKGRVTISADKSISTAYLQWSSLKASDTAMYYCARNPPYYYGTNNAEAMDYWGQGTTVTVSS
VL: B6 VL
notes: as for B1
B15: BAP050-hum14 (antibody, human IgG4 S228P, kappa, V domains shown)
VH: EVQLVQSGAEVKKPGATVKISCKVSGFTLTNYGMNWIRQSPSRGLEWLGWINTDTGEPTYADDFKGRFVFSLDTSVSTAYLQICSLKAEDTAVYYCARNPPYYYGTNNAEAMDYWGQGTTVTVSS
VL: B3 VL
notes: as for B1
B16: BAP050-hum15 (antibody, human IgG4 S228P, kappa, V domains shown)
VH: B15 VH
VL: B6 VL
notes: as for B1
B17: BAP050-hum19 (antibody, human IgG4 S228P, kappa)
heavy: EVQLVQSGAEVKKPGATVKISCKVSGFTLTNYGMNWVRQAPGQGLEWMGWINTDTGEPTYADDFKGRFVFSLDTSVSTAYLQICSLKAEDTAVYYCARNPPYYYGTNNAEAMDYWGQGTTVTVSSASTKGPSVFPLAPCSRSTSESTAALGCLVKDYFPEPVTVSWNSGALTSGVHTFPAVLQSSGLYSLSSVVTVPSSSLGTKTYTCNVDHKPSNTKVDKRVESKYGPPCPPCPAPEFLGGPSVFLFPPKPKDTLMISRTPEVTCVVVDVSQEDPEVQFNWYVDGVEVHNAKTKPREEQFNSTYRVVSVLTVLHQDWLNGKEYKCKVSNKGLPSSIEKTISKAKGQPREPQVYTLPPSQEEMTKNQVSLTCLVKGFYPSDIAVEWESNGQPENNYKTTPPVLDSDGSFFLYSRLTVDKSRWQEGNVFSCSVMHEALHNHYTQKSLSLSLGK
light: EIVLTQSPDFQSVTPKEKVTITCSSSQDISNYLNWYQQKPGQAPRLLIYYTSTLHLGVPSRFSGSGSGTDFTFTISSLEAEDAATYYCQQYYNLPWTFGQGTKVEIKRTVAAPSVFIFPPSDEQLKSGTASVVCLLNNFYPREAKVQWKVDNALQSGNSQESVTEQDSKDSTYSLSSTLTLSKADYEKHKVYACEVTHQGLSSPVTKSFNRGEC
notes: as for B1
B18: BAP050-hum08 (antibody, human IgG4 S228P, kappa)
heavy: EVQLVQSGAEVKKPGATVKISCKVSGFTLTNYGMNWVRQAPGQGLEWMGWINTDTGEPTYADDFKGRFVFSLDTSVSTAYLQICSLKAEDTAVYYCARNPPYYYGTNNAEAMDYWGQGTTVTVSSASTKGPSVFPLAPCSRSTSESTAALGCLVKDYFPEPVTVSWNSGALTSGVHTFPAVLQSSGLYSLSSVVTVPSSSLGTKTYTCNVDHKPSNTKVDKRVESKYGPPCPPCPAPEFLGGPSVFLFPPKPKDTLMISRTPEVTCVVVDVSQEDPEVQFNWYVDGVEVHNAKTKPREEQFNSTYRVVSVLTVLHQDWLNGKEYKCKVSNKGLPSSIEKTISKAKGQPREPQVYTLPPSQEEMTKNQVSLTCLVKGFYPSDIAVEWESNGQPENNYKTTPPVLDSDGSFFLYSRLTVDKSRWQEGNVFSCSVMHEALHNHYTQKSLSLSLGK
light: B17 light with F73L, E79Q, A80P, A83F
notes: as for B1
B19: BAP050-hum02-Ser (antibody, human IgG4 S228P, kappa, V domains shown)
VH: B15 VH with I37V, S40A, S42G, R43Q, L48M, C84S
VL: B2 VL
notes: C84S in VHFW3 of BAP050-hum02; IgG4(S228P)/kappa; also called clone No. 2S; huBAP050(Ser) clone
B20: BAP050-hum09-Ser (antibody, human IgG4 S228P, kappa, V domains shown)
VH: B1 VH with C84S
VL: B2 VL
notes: C84S in VHFW3 of BAP050-hum09; IgG4(S228P)/kappa; also called clone No. 9S; huBAP050(Ser) clone

Each binder was assayed against T1, human LAG-3 expressed on cells (assay: rank of the clone among the humanized clones by the FACS binding data on LAG-3-expressing cells).

Binder	Ranking, Binding data
B1	9
B2	8
B3	9
B4	9
B5	9
B6	3
B7	9
B8	2
B9	6
B10	8
B11	5
B12	8
B13	7
B14	20
B15	9
B16	20
B17	9
B18	4

What follows are binders tested against T1, human LAG-3 expressed on cells (assay: rank of the clone by the competition binding data (test mAb against FITC-labeled murine BAP050 on LAG-3-expressing CHO cells), curve position relative to the chimeric mAb in two experiments).
Procedure: Incubations with the mAb mixtures having different concentration ratios of test mAb to labeled mAb was at 4° C. for 30 min. […] The experiment was performed twice.
Such a ranking system was used in FIG. 6.

Binder	Ranking, Compet. data
B1	3
B2	2
B3	2
B4	3
B5	> 3
B6	2
B7	1
B8	2
B9	> 3
B10	2
B11	1
B12	> 3
B13	1
B14	20
B15	> 3
B16	20
B17	> 3
B18	> 3

The binders below were run against T1, human LAG-3 expressed on cells (assay: FACS competition: serial dilutions of the test mAb against a constant concentration of FITC-labeled murine BAP050 on LAG-3-expressing CHO cells; MFI of bound labelled mAb).

Binder	binding result
B19	binds
B20	binds
